This is an account of results in patent publication US20200317768A1 (published 2020).

Common to all, as to experiment: SPR (BIACORE); KD of SG1 / KD of variant;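 note: relative to parent M103205H795-SG1 carrying the SG1 human heavy chain constant region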
The target of test [1] is T1, human FcγRIIb extracellular domain, C-terminal His-tag (human, UniProt P31994 43-217).
T1 construct: also called humanFcgRIIb; not shown: His-tag added to C-terminus
T1 sequence: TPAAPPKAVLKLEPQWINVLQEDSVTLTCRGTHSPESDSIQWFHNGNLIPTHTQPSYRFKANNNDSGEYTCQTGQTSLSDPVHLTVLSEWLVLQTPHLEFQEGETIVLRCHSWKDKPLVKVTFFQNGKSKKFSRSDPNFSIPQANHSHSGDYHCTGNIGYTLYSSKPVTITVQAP
Here is the method:
(§1) The kinetic analysis of interactions between these antibodies and FcγR was carried out using BIACORE® T200 or BIACORE® 4000 (GE Healthcare). HBS-EP+ (GE Healthcare) was used as the running buffer, and the measurement temperature was set to 25° C. A chip produced by immobilizing Protein A. Protein A/G or mouse anti-human IgG kappa light chain (BD Biosciences) onto a Series S Sensor Chip CM4 or CM5 (GE Healthcare) by the amine-coupling method was used. […] After the measurement, the antibody captured on the chip was washed off by allowing reaction with 10 mM glycine-HCl, pH1.5 and 25 mM NaOH so that the chip was regenerated and used repeatedly. The sensorgrams obtained as measurement results were analyzed by the 1:1 Langmuir binding model using the BIACORE® Evaluation Software to calculate the binding rate constant ka (L/mol/s) and dissociation rate constant kd (l/s), and the dissociation constant KD (mol/L) was calculated from these values. […] Regarding such interactions, KD values were calculated using the following 1:1 binding model described in BIACORE® T100 Software Handbook BR1006-48 Edition AE.
(§2) The behavior of interacting molecules according to the 1:1 binding model on BIACORE® can be described by Equation 1: Req=C·R max/(KD+C)+RI, wherein, Req is a plot of steady-state binding levels to analyte concentration. C is concentration, RI is bulk refractive index contribution in the sample, and Rmax is analyte binding capacity of the surface. When this equation is rearranged, KD can be expressed as Equation 2: KD=C·Rmax/(Req−RI)−C. KD can be calculated by substituting the values of Rmax, RI, and C into Equation 1 or Equation 2. From the current measurement conditions, RI=0, C=2 μmol/L can be used.

Test [2] deals with T2, human FcγRIIaR extracellular domain, C-terminal His-tag (human, UniProt P12318 34-217).
T2 construct: also called human FcγRIIa (type R); FcgRIIaR; not shown: His-tag added to C-terminus
T2 chain: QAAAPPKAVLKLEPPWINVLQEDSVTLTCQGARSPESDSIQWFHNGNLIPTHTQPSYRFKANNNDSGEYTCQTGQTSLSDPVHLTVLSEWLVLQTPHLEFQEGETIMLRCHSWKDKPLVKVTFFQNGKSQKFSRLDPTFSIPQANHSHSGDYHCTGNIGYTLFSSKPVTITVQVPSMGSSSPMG
On the procedure: as §1, §2

Test [3] deals with T3, cynomolgus monkey FcγRIIb extracellular domain, C-terminal His-tag (cynomolgus monkey).
T3 construct: also called cyno FcγRIIb; cynoFcγRIIb; not shown: His-tag added to C-terminus
T3 chain: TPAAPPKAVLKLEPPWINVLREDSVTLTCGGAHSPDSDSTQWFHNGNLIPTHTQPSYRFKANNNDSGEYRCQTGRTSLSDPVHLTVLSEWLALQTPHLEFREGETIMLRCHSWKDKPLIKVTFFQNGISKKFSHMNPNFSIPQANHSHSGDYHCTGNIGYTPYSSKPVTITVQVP
On the procedure: as §1, §2

The target of test [4] is T4, cynomolgus monkey FcγRIIa2 extracellular domain, C-terminal His-tag (cynomolgus monkey).
T4 construct: also called cyno FcγRIIa2; cynoFcgRIIa2; not shown: His-tag added to C-terminus
T4 chain: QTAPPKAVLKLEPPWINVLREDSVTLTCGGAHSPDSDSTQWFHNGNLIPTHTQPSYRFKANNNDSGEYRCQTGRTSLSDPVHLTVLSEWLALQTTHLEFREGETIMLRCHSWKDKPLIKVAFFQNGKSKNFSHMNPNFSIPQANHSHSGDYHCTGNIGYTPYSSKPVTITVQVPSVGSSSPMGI
On the procedure: as §1, §2

Test [5] concerns the target T5, human FcγRIIaH extracellular domain, C-terminal His-tag (human, UniProt P12318 34-217).
T5 construct: also called human FcγRIIa (type H); FcgRIIaH; not shown: His-tag added to C-terminus
T5 sequence: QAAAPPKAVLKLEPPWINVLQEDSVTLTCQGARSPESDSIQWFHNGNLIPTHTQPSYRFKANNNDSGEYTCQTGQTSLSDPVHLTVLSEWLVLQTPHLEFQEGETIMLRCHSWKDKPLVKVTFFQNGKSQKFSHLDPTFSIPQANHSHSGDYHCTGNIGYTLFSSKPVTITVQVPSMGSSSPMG
On the procedure:
as §1, §2

For test [6], the target named is T6, cynomolgus monkey FcγRIIIaS extracellular domain, C-terminal His-tag (cynomolgus monkey, UniProt A3RFZ7 21-206 (rhesus entry)).
T6 construct: also called cyno FcγRIIIaS; cynoFcγRIIIaS; not shown: His-tag added to C-terminus
T6 sequence (A3RFZ7 21-206): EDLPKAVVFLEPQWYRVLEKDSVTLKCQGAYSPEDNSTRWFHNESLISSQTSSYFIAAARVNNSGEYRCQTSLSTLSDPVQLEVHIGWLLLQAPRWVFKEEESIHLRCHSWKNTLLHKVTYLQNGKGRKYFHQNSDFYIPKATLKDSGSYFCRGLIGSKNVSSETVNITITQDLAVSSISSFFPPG
On the procedure:
as §1, §2

The target of test [7] is T7, cynomolgus monkey FcγRIIa1 extracellular domain, C-terminal His-tag (cynomolgus monkey).
T7 construct: also called cyno FcγRIIa1; cynoFcgRIIa1; not shown: His-tag added to C-terminus
T7 chain: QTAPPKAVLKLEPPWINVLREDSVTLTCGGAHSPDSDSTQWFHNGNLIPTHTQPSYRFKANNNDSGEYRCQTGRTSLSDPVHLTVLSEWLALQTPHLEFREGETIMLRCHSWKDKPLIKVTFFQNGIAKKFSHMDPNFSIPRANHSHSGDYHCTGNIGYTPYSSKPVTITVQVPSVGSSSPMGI
On the procedure:
as §1, §2

Test [8] has as its target T8, cynomolgus monkey FcγRIIa3 extracellular domain, C-terminal His-tag (cynomolgus monkey).
T8 construct: also called cyno FcγRIIa3; cynoFcgRIIa3; not shown: His-tag added to C-terminus
T8 chain: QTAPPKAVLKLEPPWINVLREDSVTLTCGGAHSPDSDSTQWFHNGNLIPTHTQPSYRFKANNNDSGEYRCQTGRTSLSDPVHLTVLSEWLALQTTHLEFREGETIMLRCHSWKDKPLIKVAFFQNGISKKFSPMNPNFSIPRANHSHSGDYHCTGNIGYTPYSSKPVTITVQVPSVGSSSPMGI
Here is the method:
as §1, §2

For test [9], the target named is T9, human FcγRIIIaV extracellular domain, C-terminal His-tag (human, UniProt P08637 17-208).
T9 construct: also called FcgRIIIaV; not shown: His-tag added to C-terminus
T9 sequence (P08637 17-208 F176V): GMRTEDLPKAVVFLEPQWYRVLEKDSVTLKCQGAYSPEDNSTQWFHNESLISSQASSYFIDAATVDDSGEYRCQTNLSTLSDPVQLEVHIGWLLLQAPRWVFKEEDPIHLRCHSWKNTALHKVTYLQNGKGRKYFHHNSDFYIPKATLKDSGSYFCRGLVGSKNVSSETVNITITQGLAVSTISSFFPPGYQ
Here is the method:
as §1, §2

B1: M103205H795-MY534 / M103202L889-SK1 (antibody, human IgG1, kappa)
heavy: QVTLKESGPVLVKPTETLTLTCTVSGIDLSHDDISWVRQAPGKGLEWVGIISYAGSTYYASWAKGRLTISKDTSKNQVVLTMTNMDPVDTATYYCARGVPAYSHGGDLWGQGTLVTVSSASTKGPSVFPLAPSSKSTSGGTAALGCLVKDYFPEPVTVSWNSGALTSGVHTFPAVLQSSGLYSLSSVVTVPSSSLGTQTYICNVNHKPSNTKVDKKVEPKSCDKTHTCPPCPAPELLTGPVVFLFPPKPKDTLMISRTPEVTCVVVDVSDEDPEVKFNWYVDGVEVHNAKTKPREELYNSTYRVVSVLTVLHQDWLNGKEYKCKVSNKALPKPIEKTISKAKGQPREPQVYTLPPSREEMTKNQVSLTCLVKGFYPSDIAVEWESNGQPENNYKTTPPVLDSDGSFFLYSKLTVDKSRWQQGNVFSCSVMHEALHNHYTQKSLSLSP
light: DIVMTQSPATLSLSPGERATLSCTSSQSVYHANWLSWFQQKPGQPPKLLIYWASTLAYGVPSRFSGSGSGTDFTLTISSLQPEDAATYYCAGGYGGGRYAFGQGTKVEIKRTVAAPSVFIFPPSDEQLKSGTASVVCLLNNFYPREAKVQWKVDNALQSGNSQESVTEQDSKDSTYSLSSTLTLSKADYEKHKVYACEVTHQGLSSPVTKSFNRGEC
On to B1, for which the “KD fold (SG1 = 1)” value in test [1] came to 3.8 fold; in [2], 3.8 fold; in test [3] it was 4.3 fold; in test [4] it was 3.9 fold; in test [5], 4.1 fold; in test [6], 0.22 fold. Also, the results for the “KD fold (SG1 = 1)” value in [7], in test [8] and in [9] were 2.5 fold, 14.2 fold and 0.19 fold, respectively.

B2: M103205H795-MY536 / M103202L889-SK1 (antibody, human IgG1, kappa)
heavy: QVTLKESGPVLVKPTETLTLTCTVSGIDLSHDDISWVRQAPGKGLEWVGIISYAGSTYYASWAKGRLTISKDTSKNQVVLTMTNMDPVDTATYYCARGVPAYSHGGDLWGQGTLVTVSSASTKGPSVFPLAPSSKSTSGGTAALGCLVKDYFPEPVTVSWNSGALTSGVHTFPAVLQSSGLYSLSSVVTVPSSSLGTQTYICNVNHKPSNTKVDKKVEPKSCDKTHTCPPCPGPEWLTGPVVFLFPPKPKDTLMISRTPEVTCVVVDVSDEDPEVKFNWYVDGVEVHNAKTKPREEQYNSTYRVVSVLTVLHQDWLNGKEYKCKVSNKALPKPIEKTISKAKGQPREPQVYTLPPSREEMTKNQVSLTCLVKGFYPSDIAVEWESNGQPENNYKTTPPVLDSDGSFFLYSKLTVDKSRWQQGNVFSCSVMHEALHNHYTQKSLSLSP
light: DIVMTQSPATLSLSPGERATLSCTSSQSVYHANWLSWFQQKPGQPPKLLIYWASTLAYGVPSRFSGSGSGTDFTLTISSLQPEDAATYYCAGGYGGGRYAFGQGTKVEIKRTVAAPSVFIFPPSDEQLKSGTASVVCLLNNFYPREAKVQWKVDNALQSGNSQESVTEQDSKDSTYSLSSTLTLSKADYEKHKVYACEVTHQGLSSPVTKSFNRGEC
Regarding B2, the “KD fold (SG1 = 1)” value in test [1] turned out to be 4.6 fold; in test [2], 5 fold; in test [3] it was 4.5 fold; in test [4], 4.6 fold; in test [5], 2.4 fold; in [6], 0.23 fold. Moreover, the “KD fold (SG1 = 1)” value in test [7] came to 2.7 fold; in test [8] it was 17.3 fold; in [9], 0.3 fold.

B3: M103205H795-MY535 / M103202L889-SK1 (antibody, human IgG1, kappa)
heavy: QVTLKESGPVLVKPTETLTLTCTVSGIDLSHDDISWVRQAPGKGLEWVGIISYAGSTYYASWAKGRLTISKDTSKNQVVLTMTNMDPVDTATYYCARGVPAYSHGGDLWGQGTLVTVSSASTKGPSVFPLAPSSKSTSGGTAALGCLVKDYFPEPVTVSWNSGALTSGVHTFPAVLQSSGLYSLSSVVTVPSSSLGTQTYICNVNHKPSNTKVDKKVEPKSCDKTHTCPPCPGPEWLTGPSVFLFPPKPKDTLMISRTPEVTCVVVDVSDEDPEVKFNWYVDGVEVHNAKTKPREEQYNSTYRVVSVLTVLHQDWLNGKEYKCKVSNKALPKPIEKTISKAKGQPREPQVYTLPPSREEMTKNQVSLTCLVKGFYPSDIAVEWESNGQPENNYKTTPPVLDSDGSFFLYSKLTVDKSRWQQGNVFSCSVMHEALHNHYTQKSLSLSP
light: DIVMTQSPATLSLSPGERATLSCTSSQSVYHANWLSWFQQKPGQPPKLLIYWASTLAYGVPSRFSGSGSGTDFTLTISSLQPEDAATYYCAGGYGGGRYAFGQGTKVEIKRTVAAPSVFIFPPSDEQLKSGTASVVCLLNNFYPREAKVQWKVDNALQSGNSQESVTEQDSKDSTYSLSSTLTLSKADYEKHKVYACEVTHQGLSSPVTKSFNRGEC
As to B3, the “KD fold (SG1 = 1)” value in test [1] stood at 2.4 fold; in test [2], 1.7 fold; in [3], 4.4 fold; in test [4], 3.6 fold; in test [5] it was 1.5 fold; in test [6], 0.17 fold. In addition, the “KD fold (SG1 = 1)” value came to 2.1 fold in test [7], 5.7 fold in test [8] and 0.16 fold in test [9].
